Measurements: article PMC6391317

Columns and labels:
[1] = target: T1, thrombin (alpha-thrombin) (human, UniProt P00734;P00734 328-363;364-622); test: capillary electrophoresis; simulated body plasma ionic buffer (SBP); exosite II; CE: 400 nM thrombin + 100 nM fluorescein-labeled aptamer in simulated body plasma ionic buffer (SBP; composition and pH not given in the material), 37 C for 2 m
[2] = target: T1, thrombin (alpha-thrombin); test: capillary electrophoresis; simulated body plasma ionic buffer (SBP); exosite I; CE: 400 nM thrombin + 100 nM fluorescein-labeled aptamer in simulated body plasma ionic buffer (SBP; composition and pH not given in the material), 37 C for 2 m

| Binder | Kd [1] | Kd [2] |
| --- | --- | --- |
| AGTCCGTGGTAGGGCAGGTTGGGGTGACT (structured_DNA) [HD22] | 0.0976 µM |  |
| GGTTGGTGTGGTTGG (structured_DNA) [HD1] |  | 0.258 µM |
